Laboratory results: patent publication US20260055207A1 (NATIONAL UNIVERSITY CORPORATION YAMAGATA UNIVERSITY, published 2026)

Target: T1, HER2-hFc (UniProt P04626 23-652)
T1 construct: Immobilized on a CM5 sensor chip; also called HER2 immobilized on a sensor chip; not shown: hFc part
Experiment: SPR (Biacore T200), HER2-hFc immobilized on CM5 chip, antibody flowed at 1-16 nmol/l
Procedure: It was examined using a surface plasmon resonance method whether the Herceptin-Okt3 bispecific antibody obtained in Example 1(6) above could maintain a binding to Her2. Specifically: the Herceptin-Okt3 bispecific antibody was allowed to flow over HER2 immobilized on a sensor chip at a predetermined flow rate, and measurement was conducted using an intermolecular interaction analyzer. The Herceptin-Okt3 bispecific antibody purified in Example 1(6) above was diluted with 1×PBS-Tween20 to 1 nmol/l. 2 nmol/l. 4 nmol/l. 8 nmol/l, and 16 nmol/l. After the dilution, a surface plasmon resonance measuring apparatus (Biacore T200, manufactured by Cytiva) was used to measure the binding strength by allowing the diluted solution containing the Herceptin-Okt3 bispecific antibody to flow over HER2-hFc immobilized on a CM5 sensor chip (manufactured by GE Healthcare).
In FIG. 7, the horizontal axis indicates the time (minute), and the vertical axis indicates the response unit (RU).

B1: Herceptin-OKT3 bispecific antibody (bispecific antibody)
heavy 1: not shown
light 1: DIQMTQSPSSLSASVGDRVTITCSASSSVSYMNWYQQTPGKAPKRWIYDTSKLASGVPSRFSGSGSGTDYTFTISSLQPEDIATYYCQQWSSNPFTFGQGTKLQITRTVA
heavy 2: not shown
light 2: not shown
Kd: 2.25 nM
